Article doi:10.1101/2025.03.24.644901

Molecular target: MBP-SCC1 (aa 100-320) with C-terminal tetracysteine motif, FlAsH-labelled (human) (UniProt O60216)
Experiment: fluorescence polarisation

Chain of MBP-SCC1 (aa 100-320) with C-terminal tetracysteine motif, FlAsH-labelled (human) (O60216 100-320): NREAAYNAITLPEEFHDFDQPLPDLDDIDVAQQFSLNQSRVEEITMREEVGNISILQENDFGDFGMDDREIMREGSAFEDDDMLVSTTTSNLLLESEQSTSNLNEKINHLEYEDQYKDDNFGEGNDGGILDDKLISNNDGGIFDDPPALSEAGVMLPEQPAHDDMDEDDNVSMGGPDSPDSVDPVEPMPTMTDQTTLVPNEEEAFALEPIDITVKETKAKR

fold lower Kd than for SCC1^350–550: 3 fold
Substance: inactive apo-separase (separase^C2029S), Q14674 1-2120
